Results as given in the supplement of paper PMC9732359.
± gives the uncertainty stated by the source.

Experiment: protein stability index of a GFP-peptide fusion (yeast GPS) (PSI 1-4); higher = more stable; sorted into four equal gates, so the index is relative within each strain
Summary of the method: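 Tiled 17-residue peptides from yeast proteins were fused downstream of GFP on a plasmid that also expresses Cherry, and the pooled library was carried in yeast. Mid-log cultures grown in leucine-free medium were sorted into four equal gates by GFP/Cherry fluorescence ratio. Plasmids from each gate were PCR-amplified and Illumina-sequenced, and reads were assigned to strains by barcodes. Each peptide's protein stability index is the sum, over gates, of the gate's read frequency multiplied by its gate number.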

| Sequence | protein stability index (doa10∆) | protein stability index (pdr5∆) | protein stability index (san1∆) | protein stability index (ubr1∆) |
| --- | --- | --- | --- | --- |
| AEKKVVRLTSRQRGRIA [RPL17A] | 2.88 ± 0.18 | 1.28 ± 0.074 | 1.45 ± 0.19 | 1.14 ± 0.093 |
| AELDDCRGVSENVILGQ [RPO21] | 3.64 ± 0.14 | 3.68 ± 0.16 | 3.24 ± 0.07 | 3.56 ± 0.2 |
| AELKLAGEFGLKNKKEI [RPS9A] | 3.08 ± 0.11 | 3.21 ± 0.15 | 3.2 ± 0.18 | 3.21 ± 0.12 |
| AETDYVDPKRLAMVIIK [DSN1] | 3.13 ± 0.066 | 3.35 ± 0.074 | 3.03 ± 0.056 | 3.53 ± 0.06 |
| AETQGSKVVIDSIIDNI [IRR1] | 2.79 ± 0.098 | 3.26 ± 0.07 | 3.08 ± 0.12 | 2.99 ± 0.039 |
| AFGVSVAFLDNDLGKFI [RPN7] | 3.17 ± 0.086 | 3.16 ± 0.1 | 3.07 ± 0.081 | 3.28 ± 0.057 |
| AFHTAVLRLNAIPLLKV [NUT1] | 1.94 ± 0.059 | 2.43 ± 0.053 | 2.35 ± 0.07 | 1.99 ± 0.05 |
| AFNQVEIRPEMLGHYLG [RPS15] | 2.92 ± 0.12 | 3.09 ± 0.19 | 3.44 ± 0.12 | 3.19 ± 0.15 |
| AFQLADGIHYILNHIGQ [PRP8] | 2.71 ± 0.14 | 2.97 ± 0.16 | 2.71 ± 0.24 | 2.65 ± 0.14 |
| AFTCFCIKKIMENNEPA [SRB8] | 2.21 ± 0.062 | 2.64 ± 0.077 | 2.38 ± 0.09 | 2.15 ± 0.079 |
| AFVSVYSKNNPNLLFSM [PRP8] | 1.93 ± 0.063 | 2.74 ± 0.058 | 2.61 ± 0.064 | 2.71 ± 0.038 |
| AGANDTSNNETNNGNDD [GRR1] | 2.8 ± 0.048 | 2.23 ± 0.066 | 2.87 ± 0.072 | 2.89 ± 0.059 |
| AGDWKYDRQLSSLFLDG [FAS2] | 2.16 ± 0.057 | 2.81 ± 0.065 | 2.34 ± 0.11 | 2.23 ± 0.056 |
| AGERKIPHDLNFLQESY [TAF14] | 2.83 ± 0.086 | 3 ± 0.079 | 2.71 ± 0.064 | 2.62 ± 0.071 |
| AGGPDMTTPQNISSSQQ [DSN1] | 2.83 ± 0.044 | 3.04 ± 0.04 | 2.83 ± 0.037 | 2.93 ± 0.04 |
| AGGQRIVDDYWESLAKK [SWP82] | 1.84 ± 0.19 | 2.42 ± 0.092 | 2.45 ± 0.13 | 2.39 ± 0.15 |
| AGIKTRKFVFNPPKPRK [CYT1] | 3.06 ± 0.06 | 3.19 ± 0.074 | 3.03 ± 0.06 | 3.07 ± 0.063 |
| AGILRGYDIFLNVVLDD [SMX2] | 3.14 ± 0.055 | 2.38 ± 0.06 | 2.51 ± 0.084 | 2.75 ± 0.051 |
| AGKADTSIRLEGDELEN [SRB4] | 2.67 ± 0.089 | 2.97 ± 0.12 | 2.91 ± 0.088 | 3.25 ± 0.077 |
| AGLDEDGKGAVYSFDPV [PRE7] | 2.58 ± 0.29 | 3 ± 0.2 |  | 2.87 ± 0.15 |
| AGQLALDLANSGDESNV [YDL116W/NUP84] | 2.93 ± 0.29 |  | 2.71 ± 0.26 | 3 ± 0.12 |
| AGRKFKSRRCDDMLYYI [POP4] | 2.96 ± 0.094 | 3.06 ± 0.094 | 3.21 ± 0.084 | 3.04 ± 0.068 |
| AGVVQDIGSDPTLPRSD [RPB9] | 2.83 ± 0.078 | 3.2 ± 0.093 | 2.9 ± 0.061 | 2.94 ± 0.047 |
| AHAQHQPSQQPQQAQQQ [GAL11] | 2.92 ± 0.041 | 3.03 ± 0.037 | 3 ± 0.032 | 2.98 ± 0.031 |
| AHELQSEDVSRDHEKDT [YIL149C/MLP2] | 2.38 ± 0.085 | 2.73 ± 0.072 | 2.8 ± 0.061 | 2.68 ± 0.082 |
| AHIAKNLINLSIGASIA [YCS4] | 1.34 ± 0.068 | 1.37 ± 0.072 | 1.94 ± 0.17 | 1.78 ± 0.057 |
